Measurements: article doi:10.1101/2020.08.14.248047v1

Substrate: O=C(CCc1ccc(O)cc1)c1c(O)cc(O)cc1O[C@@H]1O[C@H](CO)[C@@H](O)[C@H](O)[C@H]1O
Experiment: cells, lysate or membranes
Conditions: Xenopus oocytes, pH 5.0, 15 min uptake, cumulative transport assay

B1: PUP8 (AtPUP8) (Arabidopsis thaliana) (protein)
chain: MEITQVIYVNDHNNIEANLTGQEEMNTTMEIESSSVPQSKNYKKWLRISIYVFFVLACQALSTILGRVYYENGGKSTWMGTLVQLIGFPVLFLFRFFSQTKNPKPTEADFRKFSSFTILGSVYIVTGLLVSANSYMSSVGLLYLPVSTFSLILASQLAFTAFFSYFLNSQKFTPFIVNSLFLLTISSALLVVNTDSENTAKVSRVKYVIGIICTIGASAGIGLLLSLVQLILRKVLKKQTFSTVTDLVAYQSLVASCVVLIGLFASGEWKTLTSEMENYKLGKVPYVMTLASIAISWQVYTIGVVGLIFESSSVFSNSITAVGLPIVPVVAVIVFHDKMNASKIFSIILAIWGFISFVYQHYLDEKKLKTSHTSPVGDPHLLPAEEGHTNIHSV
Km: 296 ± 39 µM
